The target in experiment [1] is GLP-1 receptor L123A (human) (UniProt P43220).
Experiment [2] deals with GLP-1 receptor E68A (human) (UniProt P43220).
Experiment [3] concerns the target GLP-1 receptor V36A (human) (UniProt P43220).
For experiment [4], the target named is GLP-1 receptor E127A (human) (UniProt P43220).
The target of experiment [5] is Wild-type human GLP-1 receptor, full length (human) (UniProt P43220).
Experiment [6] addresses GLP-1 receptor L32A (human) (UniProt P43220).
Experiment [7] addresses GLP-1 receptor R121A (human) (UniProt P43220).
Experiment [8] deals with GLP-1 receptor E128Q (human) (UniProt P43220).
Sequence of GLP-1 receptor E128Q (human) (P43220 24-463 E128Q): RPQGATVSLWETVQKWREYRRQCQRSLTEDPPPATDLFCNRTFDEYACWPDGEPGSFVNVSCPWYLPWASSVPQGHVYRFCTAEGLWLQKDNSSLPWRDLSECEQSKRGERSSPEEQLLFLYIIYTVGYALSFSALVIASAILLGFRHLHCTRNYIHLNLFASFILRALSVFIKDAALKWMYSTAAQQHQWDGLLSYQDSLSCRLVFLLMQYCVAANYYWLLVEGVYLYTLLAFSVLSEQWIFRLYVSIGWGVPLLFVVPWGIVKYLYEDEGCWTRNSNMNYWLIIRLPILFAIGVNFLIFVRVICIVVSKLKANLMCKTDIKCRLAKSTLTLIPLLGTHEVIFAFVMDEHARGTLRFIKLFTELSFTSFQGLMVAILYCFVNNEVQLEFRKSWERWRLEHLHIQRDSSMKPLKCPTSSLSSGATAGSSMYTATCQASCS
Experiment [9] deals with GLP-1 receptor T35A (human) (UniProt P43220).
Sequence of GLP-1 receptor T35A (human) (P43220 24-463 T35A): as the sequence (P43220 24-463 E128Q) above, with T12A, Q105E counted along it
The target of experiment [10] is GLP-1 receptor E128A (human) (UniProt P43220).
Sequence of GLP-1 receptor E128A (human) (P43220 24-463 E128A): as the sequence (P43220 24-463 E128Q) above, with Q105A counted along it
In experiment [11] the target is GLP-1 receptor E127Q (human) (UniProt P43220).
Sequence of GLP-1 receptor E127Q (human) (P43220 24-463 E127Q): as the sequence (P43220 24-463 E128Q) above, with E104Q, Q105E counted along it
For experiment [12], the target named is GLP-1 receptor P90A (human) (UniProt P43220).
Sequence of GLP-1 receptor P90A (human) (P43220 24-463 P90A): as the sequence (P43220 24-463 E128Q) above, with P67A, Q105E counted along it
In experiment [13] the target is GLP-1 receptor L123A (human) (UniProt P43220). Put plainly: radioligand binding.
Experiment [14] addresses GLP-1 receptor E68A (human) (UniProt P43220). Put plainly: radioligand binding.
Experiment [15] concerns the target GLP-1 receptor V36A (human) (UniProt P43220). Put plainly: radioligand binding.
The target of experiment [16] is GLP-1 receptor E127A (human) (UniProt P43220). Put plainly: radioligand binding.
Experiment [17] deals with Wild-type human GLP-1 receptor, full length (human) (UniProt P43220). Put plainly: radioligand binding.
Experiment [18] concerns the target GLP-1 receptor L32A (human) (UniProt P43220). Put plainly: radioligand binding.
In experiment [19] the target is GLP-1 receptor R121A (human) (UniProt P43220). Put plainly: radioligand binding.
Sequence of GLP-1 receptor R121A (human) (P43220 24-463 R121A): as the sequence (P43220 24-463 E128Q) above, with R98A, Q105E counted along it
Experiment [20] addresses GLP-1 receptor E128Q (human) (UniProt P43220). Put plainly: radioligand binding.
For experiment [21], the target named is GLP-1 receptor T35A (human) (UniProt P43220). Put plainly: radioligand binding.
In experiment [22] the target is GLP-1 receptor E128A (human) (UniProt P43220). Put plainly: radioligand binding.
In experiment [23] the target is GLP-1 receptor E127Q (human) (UniProt P43220). Put plainly: radioligand binding.
Experiment [24] deals with GLP-1 receptor P90A (human) (UniProt P43220). Put plainly: radioligand binding.

Sequence of GLP-1 receptor L32A (human) (P43220 24-463 L32A): as the sequence (P43220 24-463 E128Q) above, with L9A, Q105E counted along it
Sequence of Wild-type human GLP-1 receptor, full length (human) (P43220 24-463): as the sequence (P43220 24-463 E128Q) above, with Q105E counted along it
Sequence of GLP-1 receptor E68A (human) (P43220 24-463 E68A): as the sequence (P43220 24-463 E128Q) above, with E45A, Q105E counted along it
Sequence of GLP-1 receptor E127A (human) (P43220 24-463 E127A): as the sequence (P43220 24-463 E128Q) above, with E104A, Q105E counted along it
Sequence of GLP-1 receptor V36A (human) (P43220 24-463 V36A): as the sequence (P43220 24-463 E128Q) above, with V13A, Q105E counted along it
Sequence of GLP-1 receptor L123A (human) (P43220 24-463 L123A): as the sequence (P43220 24-463 E128Q) above, with L100A, Q105E counted along it

Regarding “Exendin-4 (from UniProt P26349 48-87) (peptide)”, the EC50 of cAMP production, transiently transfected HEK293 cells amounted to 0.0095 nM in [1]; 0.0095 nM in experiment [2]; 0.036 nM in experiment [3]; 0.011 nM in experiment [4]; 0.0055 nM in experiment [5]; 0.052 nM in [6]. The EC50 of cAMP production, transiently transfected HEK293 cells amounted to 0.044 nM in [7]; 0.008 nM in experiment [8]; 0.023 nM in experiment [9]; 0.025 nM in experiment [10]; 0.0068 nM in experiment [11]; 0.03 nM in experiment [12]. The IC50 in experiment [13] was 0.33 nM; in experiment [14], 0.48 nM; in experiment [15], 0.98 nM; in experiment [16], 5.2 nM; in [17], 0.76 nM; in [18], 5.4 nM. The IC50 turned out to be 1.2 nM in experiment [19]; 0.45 nM in experiment [20]; 0.44 nM in experiment [21]; 1.8 nM in experiment [22]; 0.82 nM in experiment [23]; 1.6 nM in experiment [24].
